How the values were obtained:
[1] = test system: Compound 31, AF-Cit-Lys(Mal-DM1)-Phe-Lys(PEG4-Mal-Cys-Ac)-Phe-OH
[2] = test system: Compound 11, Arg-PEG4-Phe-Arg-Ser(CO-CPT)-Phe-OH
[3] = test system: Compound 10, Arg-PEG4-Phe-Arg-Dab(CO-CPT)-Phe-OH
[4] = test system: Compound 7, DM1-Mal-Phe-Cit-Phe-Lys(PEG4-Mal-Cys-Ac)-OH
[5] = test system: Compound 29, Ac-Cys-Mal-PEG4-[Phe-Lys-Lys(Mal-DM1)-Phe]2-OH
[6] = test system: Compound 32, Ac-Cys-Mal-[PEG5-Lys(AF-Cit-Lys(Y)-Phe-OH)]2-Gly-NH2
[7] = test system: Compound 18, Arg-PEG4-[Phe-Arg-Glu(Sar-OCPT)-Arg]2-OH
[8] = test system: Compound 16, Arg-PEG4-Phe-Arg-Glu(Sar-OCPT)-Arg-Phe-Arg-OH
[9] = test system: Compound 15, Arg-PEG4-Phe-Arg-Glu(Sar-OCPT)-Arg-OH
[10] = test system: Compound 22, DM1-Mcc-Phe-Cit-Lys(PEG5-Ma-Cys-Ac)-Tyr-OH
[11] = test system: Compound 23, DM1-Mcc-Cit-Lys(PEG5-Ma-Cys-Ac)-Tyr-OH
[12] = test system: Compound 30, Ac-Cys-Mal-PEG4-Phe-Arg-Lys(Mal-DM1)-Arg-Lys(AF)-Phe-OH
[13] = test system: Compound 8, Arg-PEG4-Phe-Arg-Glu(Sar-OCPT)-Phe-OH
[14] = test system: Compound 13, Ac-Cys-Mal-PEG4-Phe-Lys-Lys(AF)-Phe-OH
[15] = test system: Compound 6, DM1-Mal-Phe-Cit-Lys(PEG4-Mal-Cys-Ac)-Phe-OH
[16] = test system: Compound 3, AF-Arg-Phe-Lys(PEG4-Mal-Cys-Ac)-OH
[17] = test system: Compound 27, Ac-Cys-Ma-PEG5-Phe-Cit-Lys(Mcc-DM1)-Tyr-OH
[18] = test system: Compound 12, Ac-Cys-Mal-PEG4-Phe-Lys-Lys(Mal-DM1)-Phe-OH
[19] = test system: Compound 19, AF-Cit-Lys(PEG4-Mal-Cys-Ac)-Phe-OH
[20] = test system: Compound 9, Arg-PEG4-Phe-Arg-Dap(CO-CPT)-Phe-OH
[21] = test system: Compound 28, Ac-Cys-Mal-PEG4-Phe-Lys-Lys(Mal-DM1)-Phe-Phe-Lys-OH
[22] = test system: Compound 5, DM1-Mal-Phe-Lys-Lys(PEG4-Mal-Cys-Ac)-Phe-OH
[23] = test system: Compound 17, Arg-PEG4-Phe-Arg-[Glu(Sar-OCPT)-Phe]2-OH
[24] = test system: Compound 1, AF-Arg-Lys(PEG4-Mal-Cys-Ac)-Phe-OH

## Recombinant human Cathepsin B
[1]
  T1/2 Compound (min), Cat B-induced cleavage: 1.08 min
[2]
  T1/2 Compound (min), Cat B-induced cleavage: 2.2 min
[3]
  T1/2 Compound (min), Cat B-induced cleavage: 0.9 min
[4]
  T1/2 Compound (min), Cat B-induced cleavage: 1.2 min
[5]
  T1/2 Compound (min), Cat B-induced cleavage: 2.4 min
[6]
  T1/2 Compound (min), Cat B-induced cleavage: 0.98 min
[7]
  Cat B-induced cleavage (in vitro enzymatic cleavage assay): Cat B-induced cleavage of compound 18 rapidly released the C-terminal dipeptide-drug unit H-Glu(Sar-OCPT)-Arg-OH and compound 16 as a first intermediate
[8]
  Cat B-induced cleavage (in vitro enzymatic cleavage assay): compound 16 as a first intermediate, which is in turn rapidly cleaved via exo-Cat B mechanism to release compound 15 as a second intermediate
[9]
  Cat B-induced cleavage (in vitro enzymatic cleavage assay): Cat B-induced cleavage of compound 15 releases a second C-terminal dipeptide-drug unit H-Glu(Sar-OCPT)-Arg-OH
[10]
  T1/2 Compound (min), Cat B-induced cleavage: 0.06 min
[11]
  T1/2 Compound (min), Cat B-induced cleavage: 0.0004 min
[12]
  T1/2 Compound (min), Cat B-induced cleavage: 1.1 min
[13]
  Cat B-induced cleavage (in vitro enzymatic cleavage assay): compound 8 was rapidly cleaved to release the C-terminal dipeptide-drug unit H-Glu(Sar-OCPT)-Phe-OH
  T1/2 Compound (min), Cat B-induced cleavage: 2.2 min
[14]
  T1/2 Compound (min), Cat B-induced cleavage: 1.6 min
[15]
  T1/2 Compound (min), Cat B-induced cleavage: 0.3 min
[16]
  T1/2 Compound (min), Cat B-induced cleavage: 1.4 min
[17]
  T1/2 Compound (min), Cat B-induced cleavage: 0.06 min
[18]
  T1/2 Compound (min), Cat B-induced cleavage: 1.5 min
[19]
  T1/2 Compound (min), Cat B-induced cleavage: 1.1 min
[20]
  T1/2 Compound (min), Cat B-induced cleavage: 4.5 min
[21]
  T1/2 Compound (min), Cat B-induced cleavage: 0.3 min
[22]
  T1/2 Compound (min), Cat B-induced cleavage: 0.6 min
[23]
  Cat B-induced cleavage (in vitro enzymatic cleavage assay): Cat B-induced cleavage of compound 17 rapidly released C-terminal dipeptide-drug unit Glu(Sar-OCPT)-Phe-OH and compound 8 as an intermediate
[24]
  T1/2 Compound (min), Cat B-induced cleavage: 1.5 min

Source: patent US20220062371
